# B1: PRL-1 phosphatase (Drosophila melanogaster (Fruit fly)), O61722 (parent)
# chain: MSITMRQKDLRPAPALIEYKGMKFLITDRPSDITINHYIMELKKNNVNTVVRVCEPSYNTDELETQGITVKDLAFEDGTFPPQQVVDEWFEVLKDKYQQNPEACVAVHCVAGLGRAPVLVALALIELGLKYEAAVEMIRDKRRGAINAKQLSFLEKYKPKARLKHKNGHKNSCSVQ
# Variants of: B1
# Conditions: with uex_drome uex
row,effect of a mutation on the interaction,Variant
1,decreasing interaction strength,MSITMRQKDLRPAPALIEYKGMKFLITDRPSDITINHYIMELKKNNVNTVVRVCEPSYNTDELETQGITVKDLAFEAGTFPPQQVVDEWFEVLKDKYQQNPEACVAVHSVAGLGRAPVLVALALIELGLKYEAAVEMIRDKRRGAINAKQLSFLEKYKPKARLKHKNGHKNSCSVQ [D77A;C109S]

# Source: IntAct's records for PubMed 31404830
